Assay results taken from PMC12052686, “NADK tetramer defective mutants affect lung cancer response to chemotherapy via controlling NADK activity” (Genes & Diseases, 2025).
Numbering of substitutions follows the chain as printed. Blank lines part the entries; values can stand above or below the molecule they belong to.

How the values were obtained:
[1] = molecular target: T1, human NADK (cNADK, full-length) (Homo sapiens, UniProt O95544, C349S); test: isothermal titration calorimetry; assay type: binding
T1 construct: full-length, modified pET28a, His tag cleaved by TEV, E. coli BL21, HisTrap / Resource Q / Superdex 200, tetramer
T1 sequence (O95544 1-446 C349S): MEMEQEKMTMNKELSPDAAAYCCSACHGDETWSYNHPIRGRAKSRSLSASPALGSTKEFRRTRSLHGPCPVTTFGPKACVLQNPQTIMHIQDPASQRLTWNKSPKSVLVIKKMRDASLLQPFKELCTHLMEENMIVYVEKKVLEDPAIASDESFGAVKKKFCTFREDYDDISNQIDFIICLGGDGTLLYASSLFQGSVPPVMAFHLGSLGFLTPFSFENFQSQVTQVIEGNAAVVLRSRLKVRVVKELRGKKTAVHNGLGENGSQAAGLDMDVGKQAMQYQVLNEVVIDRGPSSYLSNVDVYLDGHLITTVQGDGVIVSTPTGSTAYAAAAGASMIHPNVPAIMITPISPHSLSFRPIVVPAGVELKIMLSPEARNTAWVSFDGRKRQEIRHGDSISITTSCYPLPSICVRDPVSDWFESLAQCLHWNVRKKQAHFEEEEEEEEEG

[2] = molecular target: the molecule itself; test: cryo-EM structure; single-particle cryo-EM of the purified, substrate-free NADK tetramer (10 mg/mL); 2.54 Å
[3] = molecular target: the molecule itself; test: SEC; lysates of transfected HEK293T cells with endogenous NADK knocked out, Superdex 200 Increase 10/300 GL, 0.5 mL/min; fractions analysed by immunoblotting

Kd [1]: 86.9 µM
Molecule: NC(=O)c1ccc[n+]([C@@H]2O[C@H](COP(=O)([O-])OP(=O)(O)OC[C@H]3O[C@@H](n4cnc5c(N)ncnc54)[C@H](O)[C@@H]3O)[C@@H](O)[C@H]2O)c1 [NAD^+]

B1: full-length human NADK (NAD+ kinase), purified tetramer (enzyme, UniProt O95544 1-446, looked up)
chain: T1 sequence (O95544 1-446 C349S) with S349C
notes: Cloned in a modified pET28a vector; the tetramer peak of the Superdex 200 column was collected for cryo-EM; In the map the protomers are visible only from residues 98, 95, 96 and 98; also called cNADK; cytoplasmic NADK; source: E. coli BL21, purified (HisTrap FF, TEV cleavage, Resource Q, Superdex 200 Increase)
stoichiometry N [2]: 4

B2: N-terminal truncated NADK (95-446) (domain or fragment, human, UniProt O95544 95-446, looked up)
chain: SQRLTWNKSPKSVLVIKKMRDASLLQPFKELCTHLMEENMIVYVEKKVLEDPAIASDESFGAVKKKFCTFREDYDDISNQIDFIICLGGDGTLLYASSLFQGSVPPVMAFHLGSLGFLTPFSFENFQSQVTQVIEGNAAVVLRSRLKVRVVKELRGKKTAVHNGLGENGSQAAGLDMDVGKQAMQYQVLNEVVIDRGPSSYLSNVDVYLDGHLITTVQGDGVIVSTPTGSTAYAAAAGASMIHPNVPAIMITPICPHSLSFRPIVVPAGVELKIMLSPEARNTAWVSFDGRKRQEIRHGDSISITTSCYPLPSICVRDPVSDWFESLAQCLHWNVRKKQAHFEEEEEEEEEG
notes: also called ΔN95; N-terminal truncation mutant; source: HEK293T with endogenous NADK knocked out, transfected, in lysate
stoichiometry N [3]: 4
